Data taken from paper PMC10452240, “Biochemical Characterization of the Copper Nitrite Reductase from Neisseria gonorrhoeae” (Biomolecules, 2023).

Molecular target: the molecule itself
Assay: SEC; Superdex 200 10/300 GL, 50 mM Tris-HCl pH 7.6, 150 mM NaCl; 50 nmol NgCuNiR; apparent molecular weight from a calibration curve (Gel Filtration Calibration Kit, High Molecular Weight)

B1: copper-containing nitrite reductase from Neisseria gonorrhoeae, soluble domain (enzyme)
chain: AAQATAETPAGELPVIDAVTTHAPEVPPAIDRDYPAKVRVKMETVEKTMKMDDGVEYRYWTFDGDVPGRMIRVREGDTVEVEFSNNPSSTVPHNVDFHAATGQGGGAAATFTAPGRTSTFSFKALQPGLYIYHCAVAPVGMHIANGMYGLILVEPKEGLPKVDKEFYIVQGDFYTKGKKGAQGLQPFDMDKAVAEQPEYVVFNGHVGSIAGDNALKAKAGETVRMYVGNGGPNLVSSFHVIGEIFDKVYVEGGKLINENVQSTIVPAGGSAIVEFKVDIPGSYTLVDHSIFRAFNKGALGQLKVEGAENPEIMTQKLSDTAYA
notes: the construct has no signal peptide; cytoplasmic 36.5 kDa protein; Holds one type 1 and one type 2 copper centre per monomer (2.0 ± 0.1 Cu per monomer); No removal of the His-tag is described; also called NgCuNiR; AniA
With B1 the “stoichiometry N” value was 3.
